The values that follow come from US20070077597A1 (published 2007).

First the molecules themselves.
T1: human thrombin receptor (PAR1) (human, UniProt P25116 42-425)
T1 sequence (looked up): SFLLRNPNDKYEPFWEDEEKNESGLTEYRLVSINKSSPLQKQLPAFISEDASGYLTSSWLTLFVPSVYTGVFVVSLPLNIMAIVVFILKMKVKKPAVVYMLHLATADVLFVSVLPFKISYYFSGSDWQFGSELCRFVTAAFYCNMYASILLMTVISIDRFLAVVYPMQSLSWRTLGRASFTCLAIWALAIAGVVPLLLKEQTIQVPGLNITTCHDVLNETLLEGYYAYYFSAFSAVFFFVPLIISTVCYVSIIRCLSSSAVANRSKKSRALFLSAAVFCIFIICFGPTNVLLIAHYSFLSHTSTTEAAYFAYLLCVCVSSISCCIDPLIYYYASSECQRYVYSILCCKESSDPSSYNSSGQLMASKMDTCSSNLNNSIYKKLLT

B1: LacI fusion clone 8 (Gt library) (other, E. coli, not shown: small tags and cut ends)
chain: MKPVTLYDVAEYAGVSYQTVSRVVNQASHVSAKTREKVEAAMAELNYIPNRVAQQLAGKQSLLIGVATSSLALHAPSQIVAAIKSRADQLGASVVVSMVERSGVEACKAAVHNLLAQRVSGLIINYPLDDQDAIAVEAACTNVPALFLDVSDQTPINSIIFSHEDGTRLGVEHLVALGHQQIALLAGPLSSVSARLRLAGWHKYLTRNQIQPIAEREGDWSAMSGFQQTMQMLNEGIVPTAMLVANDQMALGAMRAITESGLRVGADISVVGYDDTEDSSCYIPPLTTIKQDFRLLGQTSVDRLLQLSQGQAVKGNQLLPVSLVKRKTTLAPNTQTASPRALADSLMQLARQVSRLESGQLLENLRDCGMF
notes: also called Peptide 8; HAP
B2: LacI fusion clone L3 (Gt library) (other, E. coli, not shown: small tags and cut ends)
chain: MKPVTLYDVAEYAGVSYQTVSRVVNQASHVSAKTREKVEAAMAELNYIPNRVAQQLAGKQSLLIGVATSSLALHAPSQIVAAIKSRADQLGASVVVSMVERSGVEACKAAVHNLLAQRVSGLIINYPLDDQDAIAVEAACTNVPALFLDVSDQTPINSIIFSHEDGTRLGVEHLVALGHQQIALLAGPLSSVSARLRLAGWHKYLTRNQIQPIAEREGDWSAMSGFQQTMQMLNEGIVPTAMLVANDQMALGAMRAITESGLRVGADISVVGYDDTEDSSCYIPPLTTIKQDFRLLGQTSVDRLLQLSQGQAVKGNQLLPVSLVKRKTTLAPNTQTASPRALADSLMQLARQVSRLESGQILENLKDCGLF
B3: LacI fusion clone L15 (Gt library) (other, E. coli, not shown: small tags and cut ends)
chain: MKPVTLYDVAEYAGVSYQTVSRVVNQASHVSAKTREKVEAAMAELNYIPNRVAQQLAGKQSLLIGVATSSLALHAPSQIVAAIKSRADQLGASVVVSMVERSGVEACKAAVHNLLAQRVSGLIINYPLDDQDAIAVEAACTNVPALFLDVSDQTPINSIIFSHEDGTRLGVEHLVALGHQQIALLAGPLSSVSARLRLAGWHKYLTRNQIQPIAEREGDWSAMSGFQQTMQMLNEGIVPTAMLVANDQMALGAMRAITESGLRVGADISVVGYDDTEDSSCYIPPLTTIKQDFRLLGQTSVDRLLQLSQGQAVKGNQLLPVSLVKRKTTLAPNTQTASPRALADSLMQLARQVSRLESGQVRDILKDCGLF
B4: LacI fusion clone L34 (Gt library) (other, E. coli, not shown: small tags and cut ends)
chain: MKPVTLYDVAEYAGVSYQTVSRVVNQASHVSAKTREKVEAAMAELNYIPNRVAQQLAGKQSLLIGVATSSLALHAPSQIVAAIKSRADQLGASVVVSMVERSGVEACKAAVHNLLAQRVSGLIINYPLDDQDAIAVEAACTNVPALFLDVSDQTPINSIIFSHEDGTRLGVEHLVALGHQQIALLAGPLSSVSARLRLAGWHKYLTRNQIQPIAEREGDWSAMSGFQQTMQMLNEGIVPTAMLVANDQMALGAMRAITESGLRVGADISVVGYDDTEDSSCYIPPLTTIKQDFRLLGQTSVDRLLQLSQGQAVKGNQLLPVSLVKRKTTLAPNTQTASPRALADSLMQLARQVSRLESGQILESLNECGLF
B5: LacI fusion clone 13 (Gt library), IRGSLKDCGLF (other, E. coli, not shown: small tags and cut ends)
chain: MKPVTLYDVAEYAGVSYQTVSRVVNQASHVSAKTREKVEAAMAELNYIPNRVAQQLAGKQSLLIGVATSSLALHAPSQIVAAIKSRADQLGASVVVSMVERSGVEACKAAVHNLLAQRVSGLIINYPLDDQDAIAVEAACTNVPALFLDVSDQTPINSIIFSHEDGTRLGVEHLVALGHQQIALLAGPLSSVSARLRLAGWHKYLTRNQIQPIAEREGDWSAMSGFQQTMQMLNEGIVPTAMLVANDQMALGAMRAITESGLRVGADISVVGYDDTEDSSCYIPPLTTIKQDFRLLGQTSVDRLLQLSQGQAVKGNQLLPVSLVKRKTTLAPNTQTASPRALADSLMQLARQVSRLESGQIRGSLKDCGLF
notes: also called L20
B6: LacI fusion clone L6 (Gt library) (other, E. coli, not shown: small tags and cut ends)
chain: MKPVTLYDVAEYAGVSYQTVSRVVNQASHVSAKTREKVEAAMAELNYIPNRVAQQLAGKQSLLIGVATSSLALHAPSQIVAAIKSRADQLGASVVVSMVERSGVEACKAAVHNLLAQRVSGLIINYPLDDQDAIAVEAACTNVPALFLDVSDQTPINSIIFSHEDGTRLGVEHLVALGHQQIALLAGPLSSVSARLRLAGWHKYLTRNQIQPIAEREGDWSAMSGFQQTMQMLNEGIVPTAMLVANDQMALGAMRAITESGLRVGADISVVGYDDTEDSSCYIPPLTTIKQDFRLLGQTSVDRLLQLSQGQAVKGNQLLPVSLVKRKTTLAPNTQTASPRALADSLMQLARQVSRLESGQICENLKDCGLF
B7: LacI fusion clone L10 (Gt library), IHDRLKDCGLF (other, E. coli, not shown: small tags and cut ends)
chain: MKPVTLYDVAEYAGVSYQTVSRVVNQASHVSAKTREKVEAAMAELNYIPNRVAQQLAGKQSLLIGVATSSLALHAPSQIVAAIKSRADQLGASVVVSMVERSGVEACKAAVHNLLAQRVSGLIINYPLDDQDAIAVEAACTNVPALFLDVSDQTPINSIIFSHEDGTRLGVEHLVALGHQQIALLAGPLSSVSARLRLAGWHKYLTRNQIQPIAEREGDWSAMSGFQQTMQMLNEGIVPTAMLVANDQMALGAMRAITESGLRVGADISVVGYDDTEDSSCYIPPLTTIKQDFRLLGQTSVDRLLQLSQGQAVKGNQLLPVSLVKRKTTLAPNTQTASPRALADSLMQLARQVSRLESGQIHDRLKDCGLF
notes: this is the first
B8: LacI fusion clone L14 (Gt library) (other, E. coli, not shown: small tags and cut ends)
chain: MKPVTLYDVAEYAGVSYQTVSRVVNQASHVSAKTREKVEAAMAELNYIPNRVAQQLAGKQSLLIGVATSSLALHAPSQIVAAIKSRADQLGASVVVSMVERSGVEACKAAVHNLLAQRVSGLIINYPLDDQDAIAVEAACTNVPALFLDVSDQTPINSIIFSHEDGTRLGVEHLVALGHQQIALLAGPLSSVSARLRLAGWHKYLTRNQIQPIAEREGDWSAMSGFQQTMQMLNEGIVPTAMLVANDQMALGAMRAITESGLRVGADISVVGYDDTEDSSCYIPPLTTIKQDFRLLGQTSVDRLLQLSQGQAVKGNQLLPVSLVKRKTTLAPNTQTASPRALADSLMQLARQVSRLESGQLRENLKDCGLL
B9: LacI fusion clone L33 (Gt library) (other, E. coli, not shown: small tags and cut ends)
chain: MKPVTLYDVAEYAGVSYQTVSRVVNQASHVSAKTREKVEAAMAELNYIPNRVAQQLAGKQSLLIGVATSSLALHAPSQIVAAIKSRADQLGASVVVSMVERSGVEACKAAVHNLLAQRVSGLIINYPLDDQDAIAVEAACTNVPALFLDVSDQTPINSIIFSHEDGTRLGVEHLVALGHQQIALLAGPLSSVSARLRLAGWHKYLTRNQIQPIAEREGDWSAMSGFQQTMQMLNEGIVPTAMLVANDQMALGAMRAITESGLRVGADISVVGYDDTEDSSCYIPPLTTIKQDFRLLGQTSVDRLLQLSQGQAVKGNQLLPVSLVKRKTTLAPNTQTASPRALADSLMQLARQVSRLESGQIVEILEDCGLF
B10: LacI fusion clone L38 (Gt library) (other, E. coli, not shown: small tags and cut ends)
chain: MKPVTLYDVAEYAGVSYQTVSRVVNQASHVSAKTREKVEAAMAELNYIPNRVAQQLAGKQSLLIGVATSSLALHAPSQIVAAIKSRADQLGASVVVSMVERSGVEACKAAVHNLLAQRVSGLIINYPLDDQDAIAVEAACTNVPALFLDVSDQTPINSIIFSHEDGTRLGVEHLVALGHQQIALLAGPLSSVSARLRLAGWHKYLTRNQIQPIAEREGDWSAMSGFQQTMQMLNEGIVPTAMLVANDQMALGAMRAITESGLRVGADISVVGYDDTEDSSCYIPPLTTIKQDFRLLGQTSVDRLLQLSQGQAVKGNQLLPVSLVKRKTTLAPNTQTASPRALADSLMQLARQVSRLESGQLLDILKDCGLF

For one assay, the target named is T2, light-activated bovine rhodopsin (metarhodopsin II) in rod outer segment membranes (bovine, UniProt P02699 1-348, retinylidene chromophore on Lys-296 (all-trans after light)).
T2 construct: whole, on cells; also called MII
T2 sequence (P02699 whole entry): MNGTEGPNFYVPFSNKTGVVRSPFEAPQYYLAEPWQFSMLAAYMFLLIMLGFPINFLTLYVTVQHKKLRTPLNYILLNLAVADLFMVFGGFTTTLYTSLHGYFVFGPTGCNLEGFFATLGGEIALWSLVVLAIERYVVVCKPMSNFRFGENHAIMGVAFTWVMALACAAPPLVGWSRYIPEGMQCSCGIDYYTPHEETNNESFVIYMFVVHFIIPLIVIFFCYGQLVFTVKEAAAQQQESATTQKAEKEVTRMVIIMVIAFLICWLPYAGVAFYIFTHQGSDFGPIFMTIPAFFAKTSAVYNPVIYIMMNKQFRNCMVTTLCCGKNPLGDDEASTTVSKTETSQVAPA
Briefly: first screening of the Gαt library on light-activated rhodopsin.
In the case of B1, the “fold higher binding than the native sequence” value stood at 1000 fold.

A further assay concerns the target T1, human thrombin receptor (PAR1). Briefly: ELISA dose-response, purified MBP-Gαq on purified reconstituted PAR1 with thrombin receptor activating peptide.
With “purified maltose binding protein-Gαq (MBP-Gαq), native Gq C-terminal peptide fusion”, the IC50 was 214 nM.

A further assay concerns the target T2, light-activated bovine rhodopsin …. Briefly: ELISA of clone lysate on rhodopsin. On the procedure:
The methods of Example 7 repeated using rhodopsin screening with a Gt library. To identify the rank order of binding, the lysates were analyzed using ELISA methods in which the secondary antibody was conjugated to HRP. Following addition of the substrate, the microplate was read using a spectrophotometer. The binding is the OD₄₅₀ for wells with receptor—OD₄₅₀ for wells in which no receptor (control wells with empty lipid vesicles).
On to B2, for which the “ELISA (OD450 with receptor minus OD450 without receptor)” value was 0.839 OD450.

As to B3, the “ELISA (OD450 with receptor minus OD450 without receptor)” value was found to be 0.621 OD450.

As for B4, the “ELISA (OD450 with receptor minus OD450 without receptor)” value was 0.603 OD450.

As to B5, the “ELISA (OD450 with receptor minus OD450 without receptor)” value amounted to 0.423 OD450.

With B6, the “ELISA (OD450 with receptor minus OD450 without receptor)” value turned out to be 0.342 OD450.

As for B7, the “ELISA (OD450 with receptor minus OD450 without receptor)” value is 0.506 OD450.

As for B8, the “ELISA (OD450 with receptor minus OD450 without receptor)” value is 0.833 OD450.

In the case of B9, the “ELISA (OD450 with receptor minus OD450 without receptor)” value was 1.01 OD450.

Regarding B10, the “ELISA (OD450 with receptor minus OD450 without receptor)” value is 0.823 OD450.

The target of a further assay is T1, human thrombin receptor (PAR1). Briefly: cell-based or functional assay.
For the molecule MGLQENLKDIMLQ [Gα12 C-terminal minigene peptide (pcDNA-Gα12)], the “thrombin-mediated HA-MAPK activity in HMEC” value was 50 % decrease.

As for MGLHDNLKQLMLQ [Gα13 C-terminal minigene peptide (pcDNA-Gα13)], the “thrombin-mediated HA-MAPK activity in HMEC” value is 77 % decrease.

For the molecule MGLQLNLKEYNAV [Gαq C-terminal minigene peptide (pcDNA-Gαq)], the “thrombin-mediated HA-MAPK activity in HMEC” value is 57 % decrease.

As to MGIKNNLKDCGLF [Gαi C-terminal minigene peptide (pcDNA-Gαi)], the “thrombin-mediated HA-MAPK activity in HMEC” value was found to be 59 % decrease.
